In patent publication US20230331835A1 (published 2023):

Columns and labels:
BMECs [1] = experiment: cell binding, apparent equilibrium affinity; apparent Kd; 95% CI 19-36
BMECs [2] = experiment: cell binding, apparent equilibrium affinity; apparent Kd; 95% CI 30-74
BMECs [3] = experiment: cell binding, apparent equilibrium affinity; apparent Kd; 95% CI 29-47
BMECs [4] = experiment: cell binding, apparent equilibrium affinity; apparent Kd; 95% CI 128-179
BMECs [5] = experiment: cell binding, apparent equilibrium affinity; apparent Kd; 95% CI 27-60

B1: 17 (Fc fusion)
chain: QVQLLQSAGALVQPGGSLRLSCAASGFTFSSSTMHWVRQAPGKGLEWVAVVSYDGNTQYYADSVKGRFTISRDNSKNTLSLQMNNLRAEDTAVYYCAGLWGSLLGYFQHWGQGTLVTVSSGGGGSGGGGSGGGGSDIQMTQSPSFLSASVGDRVTITCRASQGVNNYLAWYQQKPGKAPKLLIYAASTLQSGVPSSFSGSGSGTEFTLTISSLQPEDFATYFCQQAHSFPPTFGGGTKLEIKR
B1 was tested, and the Kd (BMECs [1]) was 28 nM.

B2: 3 (Fc fusion)
chain: QVQLQESGGGVVQPGRSLRLSCAASGFTFSSYAMHWVRQAPGKGLEWVAVISYDGSNKYYADSVKGRFTISRDNSKNTLYLQMNSLRAEDTAVYYCARDSKGQSVRNRFDPWGQGTLVTVSSGGGGSGGGGSGGGGSSELTQDPAVSVALGQTVRITCQGDNLRSYYASWYQQRPGQAPILVLYANTHRPSSIPDRFSGSSSGNTASLTITGAQAEDEADYYCNSRDSSGNLVVFGGGTKLTVLG
Work on B2 yielded a Kd (BMECs [2]) of 52 nM.

B3: 26 (Fc fusion)
chain: QVELVESGGGLVQPGGSLRLSCAASGFTFSTYWMNWVRQAPGKGLEWVAIINQDGTAEYYVDSVEGRFTISRDNAKNSLYLQMTSLRVEDTAVYYCATPTGDSDYWGQGTLVTVSSGGGGSGGGGSGGGGSSELTQDPAVSVALGQTVRITCQGDSLRSYYATWYQQKPGQAPVAVIYGQNNRPSGIPDRFSGSNSGNTASLTITAALAEDEADYYCHSRDSSGNHVLFGGGTKLTVLG
B3 showed a Kd (BMECs [3]) of 38 nM.

B4: 46.1 (Fc fusion)
chain: QVQLQESGGGLAQPGGSLRLSCAASGFTFSGYWMHWVRQAPGKGLVWVSRIKGDGTDIEYADSVKGRFTISRDNAKNTLYLQMNSLRAEDTAVYYCARDLRQTHWFDSWGQGTLVTVSSGGGGSGGGGSGGGGSQSALTQDPAVSVALGQTVRITCQGDSLRSYYASWYQQKPGQAPVLVMYGENSRPSGIPDRFSGSNSGNTASLIITGAQAEDEADYYCSSRDTSGNHVLFGGGTKLTVLG
Work on B4 yielded a Kd (BMECs [4]) of 153 nM.

B5: 9 (Fc fusion)
chain: QVQLVESGGGVTQPGLSLRLSCAASGFTFSSYAMSWVRQAPGKGLEWVSAISGSGGSTYYADSVKGRFTISRDNSKNTLYLQMNSLRAEDTAVYYCARGWKYFDYWGQGTLVTVSSSGGGSGGGGSGGGGSETTLTQSPSTLSASIGDRVAITCRASEGIYHWLAWYQQKPGKAPKLLIYKASSLASGAPSRFSGSGSGTDFTLTISSLQPDDFATYYCQQYHTISRTFGPGTKVEIKR
B5 was tested, and the Kd (BMECs [5]) was 44 nM.
